{"source": "patent US20190309074A1", "about": "“DEGLYCOSYLATED ANTIBODY SPECIFICALLY BINDING TO CLEC14A AND USES THEREOF” (WOORI TECHNOLOGIES CORPORATION, priority 2016, published 2019)", "molecules": {"B1": {"name": "Clone 1 IgG: parent antibody CDRs grafted to the framework region of omalizumab (Xolair®) (antibody, V domains shown)", "VH": "EVQLVESGGGLVQPGGSLRLSCAVSGFTFSGYDMSWIRQAPGKGLEWVAGIYPDGGNTYYADSVKGRFTISRDDSKNTFYLQMNSLRAEDTAVYYCARGATWWVLGPFDYWGQGTLVTVSS", "VL": "DIQLTQSPSSLSASVGDRVTITCTGSSSNIGNNSVTWYQQKPGKAPKLLIYADSHRPSGVPSRFSGSGSGTDFTLTISSLQPEDFATYYCGAWDDSLSGYVFGQGTKVEIKR"}}, "key": {"[1]": {"assay": "water-soluble antibody weighed after aggregates precipitated and removed by centrifugation", "type": "physicochemical", "text": "For further comparison in stability between parent antibody IgG and clone 1 IgG, a water-soluble antibody was weighed after aggregates were precipitated and removed by centrifugation."}, "[2]": {"assay": "aggregation of purified antibody by visual observation and spectrophotometry", "type": "physicochemical", "settings": "for aggregation by visual observation: purified antibody preparation", "text": "In order to identify improved aggregation degree of clone 1 IgG, aggregation of purified parent antibody IgG and clone 1 IgG was compared by visual observation and then was confirmed by spectrophotometry."}, "hclec14a-CTLD-Fc": {"molecular_target": "T1, hclec14a-CTLD-Fc (Homo sapiens, UniProt Q86T13)", "T1 sequence (Q86T13 33-173 limits assumed)": "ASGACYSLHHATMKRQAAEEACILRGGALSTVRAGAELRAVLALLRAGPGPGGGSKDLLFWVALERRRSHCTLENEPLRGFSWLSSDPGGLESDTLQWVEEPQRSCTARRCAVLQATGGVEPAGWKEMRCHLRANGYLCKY", "assay": "ELISA binding specificity", "text": "(§1) Then, the scFv clones were converted into IgG, expressed in human embryonic kidney (HEK) 293 cells and then purified."}, "mclec14a-CTLD-Fc": {"molecular_target": "T2, mclec14a-CTLD-Fc (Mus musculus, UniProt Q8VCP9)", "T2 construct": "both human and mouse clec14a-CTLDs (hclec14a-CTLD and mclec14a-CTLD)", "T2 sequence (Q8VCP9 33-173 limits assumed)": "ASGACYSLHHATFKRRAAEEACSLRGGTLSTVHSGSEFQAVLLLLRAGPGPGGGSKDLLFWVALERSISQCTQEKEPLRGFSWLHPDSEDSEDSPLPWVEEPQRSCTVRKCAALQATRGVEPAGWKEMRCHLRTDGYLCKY", "assay": "ELISA binding specificity", "text": "as §1"}, "HUVEC tube formation": {"test_system": "HUVEC tube formation", "assay": "HUVEC tube formation assay", "type": "cell-based, human", "settings": "branches as % of MOCK", "procedure": "Genetic mutation introduced during antibody engineering induces unpredicted defects, resulting in deterioration in antibody functions. In order to isolate antibodies for suppressing clec14a-mediated angiogenesis, tube formation and endothelial cell migration assay using human umbilical vein endothelial cells (HUVECs) were conducted in the presence or absence of clone 1 IgG and deglyco C1-C4 IgGs. Among the four types of deglyco IgGs, deglyco C1 IgG was selected as a candidate antibody. […] In addition, it can be seen that deglyco C1 IgG includes desired alterations (N32R/N33C/S34G) in the amino acid sequence in light chain CDR1.\nIn order to compare in vitro angiogenesis suppression effect between deglyco C1 IgG and bevacizumab, tube formation and migration assay were conducted in the presence or absence of parent antibody IgG, deglyco C1 IgG or bevacizumab as a positive control group.\nIn order to investigate in vitro effects of deglyco C1 IgG on VEGF-dependent angiogenesis, HUVECs were treated with VEGF in the presence or absence of deglyco C1 IgG, and then HUVEC tube formation assay was conducted. 150 μl of Matrigel was added to a 48-well plate and incubated at 37° C. for 30 minutes. HUVEC (10^5) cultured in EGM-2 were collected, seeded on the Matrigel-coated plate and incubated at 37° C. for 18 hours in the presence or absence of clone 1 IgG, parent antibody IgG, deglycosylated clec14a-CTLD IgG or bevacizumab. HUVECs cultured in VEGF-containing EBM (endothelial cell basal medium) were seeded to the Matrigel-coated plate and incubated at 37° C. for 18 hours in the presence or absence of deglyco C1 IgG (20 μg ml^−1)."}}, "data": [{"molecule": "B1", "values": [{"measurement": "antibody of the preparation aggregated", "setting": "[1]", "value": "no antibody aggregation was observed"}, {"measurement": "aggregation by visual observation", "setting": "[2]", "value": "not visually observed"}, {"measurement": "aggregation by visual observation", "setting": "[2]; listed as the antibody substituted with the framework of omalizumab (Xolair®)", "value": "no aggregation"}, {"measurement": "Aggregation index", "setting": "[2]; spectrophotometry, 100×[Abs340/(Abs280−Abs340)]", "value": "~1.5"}, {"measurement": "binding to hclec14a-CTLD-Fc", "setting": "hclec14a-CTLD-Fc", "value": "cross-reactivity to human and mouse CTLDs"}, {"measurement": "binding to mclec14a-CTLD-Fc", "setting": "mclec14a-CTLD-Fc", "value": "cross-reactivity to human and mouse CTLDs"}, {"measurement": "inhibitory activity against HUVEC tube formation", "setting": "HUVEC tube formation", "value": "inhibitory activity against tube formation, comparable to the parent antibody"}]}]}
